{
  "source": "patent US11898183B2",
  "about": "“Programmed microorganisms to attenuate a disease” (priority 2020, dated 2024)",
  "molecules": {"B1": {"name": "CYP71 (SEQ ID NO: 32) Cinnamomum micranthum (protein)", "chain": "MALLLSLLFFASALIFLLKLNGQRANKTDVPPSPPKLPLIGNLHQLGTLPHRSLRSLAGKYGPLMLLYLGRIPTLIVSSEEMAEQIMKTHDLIFASRPSITAAKELLYGCTDLAFASYGEYWRQVRKMCVLELLSIKRVNSFRSIMEEEVGLMIERISQSSSTGAAVNLAELFLSLTGGTIARAALGKKYEGEAEEGRNKYADLVKELHALLGAFSVGDYFPSLAWVDVVTGLHGKLKRNSRELDRFLDQVIEHHLMRPLDGCDVGEHTDLVDVMLQVQKDSNRDIHLTRDNIKAIILDMFSAGTDTTALTLEWVMAELAKHPNVMKKAQGEVRRVVDVKANISEEHLCQLNYMKSIIKETLRLHPPAPLLVPRESTTNVKIQNFHIPPKTRVFINAYAIGRDPTSWENPEEFLPERFANNSVDFKGQDFQFIPFGAGRRGCPGLSFAITSLELALANLLYWFDWELPQGVTEEDLDMSEALGITVHKKLPLYLVPKNHFS", "modifications": "Depicts the amino sequence of CYP71 of Cinnamomum micranthum"}},
  "tested_on": "pathway specific substrates",
  "assay": "Enzyme functionality of pathway enzyme homologs and fusion constructs in lysed E. coli cell extracts, product by HPLC",
  "assay_type": "biochemical, E. coli BL21",
  "conditions": "substrate tested: Bursehernin; recombinant E. coli BL21 clone, lysed cell extract",
  "summary_of_the_method": "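Enzymes and fusion constructs were expressed in E. coli BL21 (pET28, T7 promoter) with 0.1 mM IPTG at 30 °C for ~20 h in M9 medium. Cleared freeze-thaw lysates were incubated with pathway-specific substrates. Products were quantified by HPLC relative to empty-plasmid lysates.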",
  "data": [
    {"molecule": "B1", "values": [
      {"measurement": "Enzyme activity in terms of product formation (in %)", "result": 94, "unit": "%"}
    ]}
  ]
}
